Patent publication US10202610B2, “Recombinant K1-5 bacteriophages and uses thereof” (priority 2017, dated 2019)

System: K1-5 phage
Experiment: Plaquing efficiency of K1-5 phage on K1 E. coli strains with inducible CRISPR-Cas9 and sgRNAs targeting the phage genome
Format: cell-based, K1-5 bacteriophage
Details: K1-5 phage plated on strains expressing the sgRNAs, in the absence of homology for repair
Procedure: K1 E. coli strains were generated for cleaving and recombining at locations specified by either sgRNAs 86+89 or sgRNAs 1112+1122. Cells were maintained with 50 μg/mL kanamycin (for the CRISPR expression vector) and 10 μg/mL gentamicin (for the recombination expression vector). Cells were grown while shaking at 37° C. to OD600˜0.6 and were then subjected to various induction treatments. Cultures were either (1) not induced, (2) induced with 100 ng/mL anhydrotetracycline (aTc) to activate Cas9 expression, (3) induced with 0.2% arabinose to activate lambda red operon expression, or (4) induced with both 100 ng/mL anhydrotetracycline and 0.2% arabinose to activate expression of Cas9 and lambda red genes. Induction was carried out for 2 hours while shaking at 37° C.
K1-5 lysate was then used to infect 200 μL cultures of each bacterial strain/induction condition at 10^6, 10^4, and 10^2 PFU. This infection was given 10 minutes for the phage to adsorb before being added to 3 mL of 0.65% LB top agar. The appropriate inducer was spiked into each top agar tube to maintain induction. The top agar was then spread over an LB agar plate containing the appropriate antibiotics to maintain the CRISPR and recombination expression vectors. The agar plates were incubated in an airtight container for approximately 16 hours at 37° C. […]

Molecule | reduction in plaquing efficiency
sgRNAs 86+89: pair of single guide RNAs, SEQ ID NO: 16 and 17, targeting the K1-5 phage genome with Cas9 (nucleic acid, further chemistry not given here) guide 1: ACUAAAUGAGGAUUAAAUCAGUUUUAGAGCUAGAAAUAGCAAGUUAAAAUAAGGCUAGUCCGUUAUCAACUUGAAAAAGUGGCACCGAGUCGGUGCUUUUUUU guide 2: UUACUCUGAUGCACUACAUGGUUUUAGAGCUAGAAAUAGCAAGUUAAAAUAAGGCUAGUCCGUUAUCAACUUGAAAAAGUGGCACCGAGUCGGUGCUUUUUUU | ~1.9×10^6 fold
sgRNAs 1112+1122: pair of single guide RNAs, SEQ ID NO: 18 and 19, targeting the K1-5 phage genome with Cas9 (nucleic acid, further chemistry not given here) guide 1: UAUAUUAUACCAGAGAGGCGGUUUUAGAGCUAGAAAUAGCAAGUUAAAAUAAGGCUAGUCCGUUAUCAACUUGAAAAAGUGGCACCGAGUCGGUGCUUUUUUU guide 2: GAAGUUCUAAGGAGAUAACAGUUUUAGAGCUAGAAAUAGCAAGUUAAAAUAAGGCUAGUCCGUUAUCAACUUGAAAAAGUGGCACCGAGUCGGUGCUUUUUUU | 2105 fold
